Where no end group is shown, it is not given here. The star is where a group is joined. DTPA = O=C(O)CN(CCN(CC(=O)O)CC(=O)O)CCN(CC(=O)O)CC(=O)*
Columns and labels:
Assay in all cases: europium-labelled ligand saturation binding on cells (time-resolved fluorescence); HEK293T cells transiently transfected with receptor, 96-well plates; increasing Eu-H2 relaxin (maximum 15 nM) with or without 1 μM unlabelled H2 relaxin, 1 h, room temperature; 20 mM HEPES pH 7.5, […] CaCl2, 50 mM NaCl, 0.01% NaN3, 1% BSA; one-site fit
[1] = target: RXFP1 T61A, full length (human)
[2] = target: T1, RXFP1 D51A, full length (human)
T1 sequence (Q9HBX9 1-757 with D51A, looked up): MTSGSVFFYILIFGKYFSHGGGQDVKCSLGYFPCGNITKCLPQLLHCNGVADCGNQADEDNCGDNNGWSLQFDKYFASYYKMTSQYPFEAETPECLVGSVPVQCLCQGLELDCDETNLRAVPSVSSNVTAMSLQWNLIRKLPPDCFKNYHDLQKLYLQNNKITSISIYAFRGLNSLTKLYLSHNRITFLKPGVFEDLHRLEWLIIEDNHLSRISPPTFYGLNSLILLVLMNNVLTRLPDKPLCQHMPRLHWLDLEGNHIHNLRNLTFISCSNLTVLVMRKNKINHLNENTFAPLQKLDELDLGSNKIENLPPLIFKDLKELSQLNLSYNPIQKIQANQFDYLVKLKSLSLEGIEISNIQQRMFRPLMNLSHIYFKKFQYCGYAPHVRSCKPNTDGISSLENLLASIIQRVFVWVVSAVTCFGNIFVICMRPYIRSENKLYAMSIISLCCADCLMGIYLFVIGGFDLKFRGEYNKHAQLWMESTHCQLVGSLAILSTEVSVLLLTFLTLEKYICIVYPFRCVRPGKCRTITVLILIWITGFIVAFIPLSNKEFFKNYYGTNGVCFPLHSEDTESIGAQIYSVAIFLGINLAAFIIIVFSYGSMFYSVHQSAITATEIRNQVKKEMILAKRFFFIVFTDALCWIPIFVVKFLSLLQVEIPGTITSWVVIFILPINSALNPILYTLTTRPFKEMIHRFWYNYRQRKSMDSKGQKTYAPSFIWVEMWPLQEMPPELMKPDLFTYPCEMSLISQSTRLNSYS

[3] = target: RXFP1 N44A, full length (human)
[4] = target: RXFP1 Y58A, full length (human)
[5] = target: RXFP1 C40A^ins, full length (human)
[6] = target: RXFP1 G41A, full length (human)
[7] = target: RXFP1 F50A^ins, full length (human)
[8] = target: RXFP1 N43A/N44A, full length (human)
[9] = target: RXFP1 S47A/L48A, full length (human)
[10] = target: RXFP1 D42A, full length (human)
[11] = target: RXFP1 F54A, full length (human)

B1: Europium-labelled H2 relaxin (ligand, human)
chain 1: {DTPA}-QLYSALANKCCHVGCTKRSLARFC
chain 2: DSWMEEVIKLCGRELVRAQIAICGMSTWS
modifications: not fully specified; ends and bridges not checked; also: DTPA cage loaded with Eu^3+
notes: A chain of human gene-2 (H2) relaxin; numbers count on: the A chain; B chain of human gene-2 (H2) relaxin; numbers count on: the B chain; also called Eu-H2 relaxin; Eu-H2
- Kd [1]: 0.69 nM
- Kd [2]: 0.73 nM
- Kd [3]: 0.81 nM
- Kd [4]: 1.56 nM
- Kd [5]: 3.92 nM
- Kd [6]: 0.95 nM
- Kd [7]: 16.7 nM
- Kd [8]: 3.28 nM
- Kd [9]: 0.43 nM
- Kd [10]: 20.7 nM
- Kd [11]: 2.43 nM
